# In article PMC8420576 (The EMBO Journal, 2021):
# B1: VHH antibody Re5D06, labeled with two PEG11-biotins (VHH)
# VHH: QVQLVESGGGLVQPGGSLRLSCAASGITLDYYAIGWFRQAPGKEREGVSRIRSSDGSTNYADSVKGRFTMSRDNAKNTVYLQMNSLKPEDTAVYYCAYGPLTKYGSSWYWPYEYDYWGQGTQVTVSS
# notes: also called Re5D06 (immobilized on BLI sensors)
# Biological target: T1, SARS-CoV-2 RBD, B.1.427/B.1.429/Epsilon/Californian variant (L452R) (SARS-CoV-2, Epsilon/Californian …, L452R)
# T1 construct: also called Epsilon/Californian RBD mutant; Californian L452R mutation
# Assay: BLI
# Settings: both partners purified
binder,measurement,value
B1,Kd,~400 pM
